The results in this text go back to publication PMC8141814 (Frontiers in Molecular Biosciences, 2021).

The experiment deals with GS-nsp5 C145A (GS added nsp5 construct with the active site mutation C145A) (SARS-CoV-2). The experiment can be described thus: NMR, 2D [15N,1H]-BEST-TROSY spectra compared.

Usually stoichiometry N stands for the number of molecules, sites or subunits per partner or assembly. The substance “GS-nsp5 C145A (GS added nsp5 construct with the active site mutation C145A) (enzyme)” returned a stoichiometry N of 2.
